Measured values taken from article PMC11234460, “In Silico Discovery of Stapled Peptide Inhibitor Targeting the Nur77‐PPARγ Interaction and Its Anti‐Breast‐Cancer Efficacy” (Advanced Science, 2024).
Bridges are numbered along the chain shown (N, C = ends). Where no end group is shown, it is not given here. [ ]: non-standard residue; d: D form. S5 = C=CCCC[C@](C)(N)C(=O)O

B1: CY14 (CL14 with Leu169 mutated to Tyr) (peptide, UniProt P37231 156-169, looked up)
peptide: CEGCKGFFRRTIRY-NH2
modifications: cysteine pairing not given here
notes: PPARγ, residues Cys156-Leu169, with Leu169 mutated to Tyr; source: synthetic peptide (Fmoc SPPS on Rink Amide MBHA resin)
B2: CF14 (CL14 with Leu169 mutated to Phe) (peptide, UniProt P37231 156-169, looked up)
peptide: CEGCKGFFRRTIRF
notes: PPARγ, residues Cys156-Leu169, with Leu169 mutated to Phe; source: synthetic peptide (Fmoc SPPS on Rink Amide MBHA resin)
B3: CH14 (CL14 with Leu169 mutated to His) (peptide, UniProt P37231 156-169, looked up)
peptide: CEGCKGFFRRTIRH
notes: PPARγ, residues Cys156-Leu169, with Leu169 mutated to His; source: synthetic peptide (Fmoc SPPS on Rink Amide MBHA resin)
B4: CL14, α-helix of PPARγ (residues Cys156-Leu169) (peptide, UniProt P37231 156-169, looked up)
peptide: CEGCKGFFRRTIRL-NH2
modifications: cysteine pairing not given here
notes: PPARγ, residues Cys156-Leu169 of the DBD; Made on Rink amide resin, so probably a C-terminal amide; source: synthetic peptide (Fmoc SPPS on Rink Amide MBHA resin)
B5: CW14 (CL14 with Leu169 mutated to Trp) (peptide, UniProt P37231 156-169, looked up)
peptide: CEGCKGFFRRTIRW
notes: PPARγ, residues Cys156-Leu169, with Leu169 mutated to Trp; source: synthetic peptide (Fmoc SPPS on Rink Amide MBHA resin)
B6: T-CY14 (CY14 with the TAT sequence conjugated to its C-terminus) (peptide)
chain: CEGCKGFFRRTIRYRKKRRQRRR-NH2
modifications: cysteine pairing not given here
B7: ST-CY14 (stapled T-CY14) (peptide)
chain: H-CEGCKGF[S5]RRT[S5]RYYGRKKRRQRRR-NH2
modifications: staple 8-12; cysteine pairing not given here
B8: S-CY14 (stapled CY14) (peptide)
chain: CEGCKGF[S5]RRT[S5]RY-NH2
modifications: staple 8-12; cysteine pairing not given here
B9: SV16, α-helix of PPARγ (residues Ser186-Val201) (peptide, UniProt P37231 186-201, looked up)
peptide: SRNKCQYCRFQKCLAV-NH2
modifications: cysteine pairing not given here
notes: PPARγ, residues Ser186-Val201 of the DBD; Made on Rink amide resin, so probably a C-terminal amide; source: synthetic peptide (Fmoc SPPS on Rink Amide MBHA resin)

What was measured:
[1] = biological target: T1, LBD fragment of human Nur77 (residues 351–598) (human, UniProt P22736 351-598); experiment: MST; purified Nur77 LBD labelled with fluorescent dye; peptides 0.1-100 × 10^-6 M; PBST (0.05% Tween-20); 20 min at room temperature; Dianthus (NanoTemper); details: both partners purified
T1 construct: Labelled with a fluorescent dye for MST; amine-coupled to the chip for SPR; also called Nur77 LBD; Nur77-LBD; source: E. coli BL21(DE3), purified (Ni-NTA, Superdex 200 gel filtration)
T1 sequence (P22736 351-598): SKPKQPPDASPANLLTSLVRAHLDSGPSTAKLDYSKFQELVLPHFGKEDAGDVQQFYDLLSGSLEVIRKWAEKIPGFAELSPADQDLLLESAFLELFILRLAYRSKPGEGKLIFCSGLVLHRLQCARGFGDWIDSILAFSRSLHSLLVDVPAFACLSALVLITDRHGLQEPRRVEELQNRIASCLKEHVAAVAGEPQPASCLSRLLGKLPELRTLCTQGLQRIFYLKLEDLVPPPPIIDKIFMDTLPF

[2] = biological target: T1, LBD fragment of human Nur77 (residues …); experiment: MST; details: both partners purified
[3] = biological target: T1, LBD fragment of human Nur77 (residues …); experiment: SPR; details: both partners purified
[4] = biological target: T2, SmallBit-Nur77 (luciferase SmallBit fusion of Nur77) (UniProt P22736 1-598); experiment: split reporter (BiFC, NanoBiT); details: one partner purified
T2 construct: Nur77; source: HEK293T, transiently transfected, in living cells
T2 sequence (P22736 whole entry, the tested form may be a part): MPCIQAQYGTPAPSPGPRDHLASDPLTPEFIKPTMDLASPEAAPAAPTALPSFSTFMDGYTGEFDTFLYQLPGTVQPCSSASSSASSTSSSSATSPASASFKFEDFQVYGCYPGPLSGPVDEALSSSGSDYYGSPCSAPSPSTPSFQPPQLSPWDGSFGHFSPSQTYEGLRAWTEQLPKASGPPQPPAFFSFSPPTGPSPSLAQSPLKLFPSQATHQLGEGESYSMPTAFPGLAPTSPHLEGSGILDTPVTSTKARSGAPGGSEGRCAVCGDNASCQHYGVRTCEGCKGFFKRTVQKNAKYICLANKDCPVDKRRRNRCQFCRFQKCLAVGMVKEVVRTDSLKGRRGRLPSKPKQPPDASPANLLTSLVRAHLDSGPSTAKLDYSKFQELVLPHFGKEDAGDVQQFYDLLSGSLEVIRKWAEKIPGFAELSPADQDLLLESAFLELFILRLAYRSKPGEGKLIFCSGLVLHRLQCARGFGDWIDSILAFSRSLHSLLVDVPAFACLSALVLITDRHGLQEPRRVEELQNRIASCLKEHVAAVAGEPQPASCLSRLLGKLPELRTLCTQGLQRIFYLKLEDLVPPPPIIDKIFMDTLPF

Binder | Kd [1] | binding result [1] | other results
B1 | 8.7 µM | – | –
B2 | – | binds | –
B3 | – | binds | –
B4 | 27.2 µM | – | –
B5 | – | binds | –
B6 | – | – | Kd [2]: 4.18 µM
B7 | – | – | Kd [2]: 0.668 µM; Kd [3]: 0.0325 µM; EC50 [4]: 3.15 µM
B8 | 3.96 µM | – | –
B9 | 156 µM | – | –
